We go through two substances from publication PMC10528150.

A value given as a limit tells only on which side of the number the result lay.

For the experiment, the target named is cytochrome c oxidase (ferrocytochrome c:oxygen oxidoreductase), solubilized complex.

As for “cytochrome c with substitutions K8E/E69K/K72E/K86E/K87E (from UniProt P00004 1-105) (natural protein)”, the Activity in the cytochrome c oxidase reaction, % of WT is under 1%; the Activity, s^−1, in the cytochrome c oxidase reaction (oxygen uptake by solubilized CcO with ascorbate and TMPD, 25 °C) is under 1 s⁻¹.

As to “cytochrome c with substitutions E69K/K72E (from UniProt P00004 1-105) (natural protein)”, the Activity in the cytochrome c oxidase reaction, % of WT amounted to 25%; the Activity, s^−1, in the cytochrome c oxidase reaction (oxygen uptake by solubilized CcO with ascorbate and TMPD, 25 °C) is 54 s⁻¹.
